Data published in the nanobody polyreactivity screen of Harvey et al. (2022).

Test: yeast display, Sf9 membrane polyspecificity reagent, FACS + sequencing; frameworks hold sequencing errors
How it was run: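 Polyreactivity labels are assigned by the sorting gate from which each nanobody was recovered. The gates were low and high (top ~1%), set on anti-HA fluorescence for expression and streptavidin fluorescence for reagent binding. Before sorting, galactose-induced (36–48 hours) yeast display cells were stained for 1 hour at 4 °C with 10% biotinylated, detergent-solubilized Sf9 membrane reagent.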

Sequence | polyreactivity (PSR sort gate)
QVQLEDSGGGLVQAGGSLLLSCPASGRIRYGMGWYRQAPGKERELVATITRGGSTNYADSVKGRFTISRDNAKNTVFLKMISLKPEDTAVYYCNAGSSWYYWRGYAYDYWGQGTQVSVSS | high polyreactivity
QVQLEDSGGGLVQAGGSLRLICAASGSIFGSYAMGWYRHAPGKERELVAAINSGGSTNYADSVKGRFTISRDNAKNTVYLQMNSLKPEDTAVYYCAARLYSNEYRYDYWGQGTQVTVSS | high polyreactivity
QVQLEDSGGGLVQAGGSLRLICAASGSIFGYYAMGWDRQAPGKERELVAAIDSGGSTYYADSVKGRFTISRDNAKNTVYLQMNSLKPEDTAVYYCAAGVSSFSPYDSWGQGTQVTVSS | low polyreactivity
QVQLEDSGGGLVQAGGSLRLSCAASGFIFLPNAMGWYRQAPGKERELVAAISTSDGSTYYADSVKGRFTISRDNAKNTVYLQMNSLKPEDTAVYYCAASYQFYRKYAYDYWGQGTQVTVSS | low polyreactivity
QVQLEDSGGGLVQAGGSLRLSCAASGFIFRYYAMGWYRKATGKERELVAAIDYSGGSTNYADSVKGRFTISRDNAKNTVYLQMNSLKPEDTAVYYCKAVHETTWQLYDYWGQGTQVTVSS | low polyreactivity
QVQLEDSGGGLVQAGGSLRLSCAASGGIFLTYTMGWYRQAPGKEREFVAAIRSSSGRTYYADSVKGRFTISRDNAKNTVYLQMISLKPEDTSVYYCNAKYYGYRVGKYYPFGYWGQGTQVTVSS | high polyreactivity
QVQLEDSGGGLVQAGGSLRLSCAASGIIFYSYAMGWYRQAPVKERELVATISFSGDNTYYADSVKGRFTISRDNAKNTVYLQMNSLKPEDTAVYYCAAASTYGGYYYSVSFEYWGQGTQVTVSS | low polyreactivity
QVQLEDSGGGLVQAGGSLRLSCAASGLTFYGYTMGWYRQAPGKERELVAAISWSGGNTYYADSVKGRFTISRDNAKNTVYLQMNSLKPEDTAVYYCAAEHWTYDWVDYWGQGTQVTVSS | low polyreactivity
QVQLEDSGGGLVQAGGSLRLSCAASGRTFRSNVMGWYRQAPGKERELVAAISKRGGSTFSADSVKGRFTISRDNAKNTVYLQMNSLKPEDTEVYYCAKDTPVYDYGTVYPDDYWGQGTQVTVSS | high polyreactivity
QVQLEDSGGGLVQAGGSLRLSCAASGSIFILNTMGWYREAPGKERELVAGISYSGSTYYADSVKGRFTISRDNAKNTVYLQMNSLKPEDTAVYYCAADYGAAWYNDGYYYWGQGTQVTVSS | low polyreactivity
QVQLEDSGGGLVQAGGSLRLSCAASGSTFYTYAMGWYRQAPGKERELVAAITFIDGSTYYADSVKGRFTISRDNAKNTVYLQMNSLKPEDTAVYYCAADDAKFRYRDDYWGQGTQVTVSS | low polyreactivity
QVQLEEAGGGLVQAGGSLRLSCAASGRTFFENAMGWYRQAPGKEREFVAAISYNGGSTYYADSVKGRFTISRDNAKNTVYLQMNSMKPDDTAVYYCAADPNYGYDYWGQGTQVTVSS | low polyreactivity
QVQLEESAGGLVQAGGSHRLSCADTGRTFRWYAMGWYRQAPGKERELVAAISRNGGSTSFADSVKGRFTISRDNAKKTVYLQLNSLKPEDTAVYYCAAGSRVQWYGYDYWGQGTQVTVSS | high polyreactivity
QVQLEESAGGLVQAGGSLRLSCAASGFTLYYYSMGWYRKAPGKERELVAAIAVSGTSTYYADSVKGRFTISRDNAKNTVYLQMNSLKPEDTAVYYCNKVFRVYQTFKAWGRDYWGQGTQVTVSS | high polyreactivity
QVQLEESAGGLVQAGGSLRLSCAASGSSFTSYAMGWYRQAPGKERELVAAITSGGSTTYADSVKGRFTISRDNEKNTVYLQMNSLKPEDTAVYYCNAKWYGYLTRDAYRYRYTYDYWGQGTQVTVSS | low polyreactivity
QVQLEESAGGLVQAGGSLRLSCAASGSTFYLNAMGSYRQAPGKERELVAAITVSGGSTYYADSVKGRFTISRDNAKNTVYLQMNSLKPEDNAVYYCARELLSPTYQRWYYYWGQGSQVTVSS | low polyreactivity
QVQLEESGAGLVQAGGSLRLSCAASGRIFTVYAMGWYRHAPGKEREFVAAIRSSGGRTYYADSVKGRFTISRDNEKNTVYLQMNSLNPEDTAVYYCAASVTGPSGADYYYWGQGTQVTVSS | high polyreactivity
QVQLEESGARIVQAGGSLRLSCAASGITLAGYVMGWYRQAPGKERELVADISSSGDSTYYADSVNGRFTISRDNAKNTVYLQMNSLKPEDTAVYYCAAEEIIPLIYKGYPFDYWGQATQVTVSS | low polyreactivity
QVQLEESGGCLVQAGGSLRLICAASGSTFDANAMGWYRQAPGKERELVATISDGGSTNYADSVKGRFTISRDNAKNTVYLQMNSLKPEDTSVYYCAALWYYGGKSACPGGGYWGQGTQVTVSS | low polyreactivity
QVQLEESGGCLVQEGGSLRLSCAASGIIFTSNTLGWYRQAPGKEREFVASINWNGSSTYADSVKGRFTISRDNAKNTVYLQMNSLKPEDTAVYYCNADYNRNSVQFSLYDYWGQGTQVTVSS | low polyreactivity
QVQLEESGGGIVQAGGSLRLSCAASGSIIILYAMGWSRQAPGKEREFVAAITWSGGSTYYADSVKGRFTISRDNAKNTVYLQMNSLKPEDTAVYYCAARIRTVAHVDYDYWGQGTQVTVSS | high polyreactivity
QVQLEESGGGLDQAGGSLRLNCAASGLISVYYVRGWYIQAPGKELELVAAINRSGGNTYYADSVKGRFTISRDNAQNTVNLQMNRLKPDVTAVYYCKASLYFYRYGHDYESDYWGQGTQVTVSS | high polyreactivity

Sequence | polyreactivity (PSR sort gate)
QVQLEESGGGLFQAGGSLRLICAASGRICDVNAMGWYRQAPGKERELVAAISWSGGITYYADSVKGRFTISRDNAKNTVYLQMNSLKPEDTAVYYCAADKYQGYTFYQGYPGGGGYWGQGTQVTVSS | low polyreactivity
QVQLEESGGGLFQAGGSLRLSCAASGLNFGQNVMGWYRQAPGKERELLAAIRESGGRTYYADSVKGRFTISRDNAKNTFYIQMNSLNPEDTAVYYCRAYWRYSRYDYWGQGTQVTGSS | high polyreactivity
QVQLEESGGGLFQAGGSLRLSCAASGRIFDPYAMGWYRQAPGKERDLVATITLRGGITYYADSVKGRFTISRDNAKNTVYLQMNSLKPEDTAVYYCAKKVRSYVRWEYDYWGQGTQVTVSS | low polyreactivity
QVQLEESGGGLVQAGGILRFSCAASGYTFRGYAMGWYRQAPGKEREFVAAIRNSGDSSYYADSVKGRFTISRDNAKNTVYLQRHSLKPEDTAVYYSAAYSRSSKYDYWGQGSQVTVSS | low polyreactivity
QVQLEESGGGLVQAGGILRLSCAASGFIIRRNALGLYRKAAGQERELVATIRASGGRTYYADSVKGRFTISRDNAKNTVYLQMNSVKPEDTAVYYCAAFRWYKPHDYWGQGTQVTVSS | high polyreactivity
QVQLEESGGGLVQAGGRLRLSCAASGPIFGYYAMGWYRQAPGKERELVAGIDWSGGNTYYADSVKGRFTISRDNAKYTVYLQMNSLKPEDTAVYYCNTEGGRDTAWYDYWGQGTQVTVSS | low polyreactivity
QVQLEESGGGLVQAGGRLRLSCAASGSIFYVYAMGWYRQAPGKERELVASINKSGGSTYFADSVKGRFTISRDNAKNTVYLQMNSLKPEDTAVYYCAARTGWPRVGFQYPAHVGFDYWGQGTQVTVSS | low polyreactivity
QVQLEESGGGLVQAGGRLRLTCAASGLTFYANAMGWYRQAPGKERELVATISVGTDSTNYADSVKGRFTISRDNAKNTVYLQMTSMKPEDTAVYYCKALYEEYYAQDPYDYWGQGTQVTVSS | high polyreactivity
QVQLEESGGGLVQAGGSHRLSCAASGITFSLYAMGWYRQAPGKERELVATIDSGGSTNYADSVKGRFTISRDNAKNTVYLQMNSLIPEDTAVYYCAADGVWYYYDMDYWGQGTQVTVSS | low polyreactivity
QVQLEESGGGLVQAGGSLRISCAASGLIFRTNAIGWYRQAPGKERELVAAISWSTGSTYYADSVKGRFTISRDNAKNTVYLQMNSLKPEDTAVYYCARTLRWTYRYGYWGQGTQVTVSS | high polyreactivity
QVQLEESGGGLVQAGGSLRISCAASGRTFRRYAMGWYRQAPGKERELVATISRGGSTYYADSVKGRFTISRDNAKNTVYLQMNSLKPEDTAVFYCAAQRQVIYASEENYWGQGTQVTVSS | high polyreactivity
QVQLEESGGGLVQAGGSLRLAVLPPDLPSTLNDMGWYRQAPGKERELVAAITRGGSTNYADSVKGRFTISRDNAKNTVYLQMNSLKPEDTAVYYCAAPYAGWRDGGDYWGQGTQVTVSS | low polyreactivity
QVQLEESGGGLVQAGGSLRLICAASGGTFSYNAMGWYRQAPGKERELVAAISWSGTRTYYADSVKGRFTISRDNEKNTVYLQMNSLKPEDTAVYYCNADSDTPRYDYWGLGTQVTVSS | low polyreactivity
QVQLEESGGGLVQAGGSLRLICAAYGSIIPYNAMGWYRQQPGEFVDAISYSSGSTYYADSVKGRFTISRDNAKNTVYLQMNSLKPEDTAVYYCAAGSWYPPSYVWLRRYDYWGQGTQVTVSS | low polyreactivity
QVQLEESGGGLVQAGGSLRLSCAASGFIFGPYAMGWYRQAPGKERELVAAMSSSGGSTSYEDSVKGRFTISRDNAKNTVYLQMNSLKPEDTAVYYCAARGRYRLYSNYYDYWGQGTQVNVSS | high polyreactivity
QVQLEESGGGLVQAGGSLRLSCAASGFIFSRYDMGWYRQAPGKERELVAAITSGGSTYYADSVKGRFTISRDNAKNTVYLQMNSLKPEDTAVYYCNAYVRSDYDYWGQGTQVTVSS | high polyreactivity
QVQLEESGGGLVQAGGSLRLSCAASGFIYVKYAMGWYRQAPGKERELVAAITNGGSTYYADSVKGRFTISRDNAKYTVYLQMNSLKPEDTAVYYCAAQYHDWWRRLLYRSFRPFDYWGQGTQVTVSS | low polyreactivity
QVQLEESGGGLVQAGGSLRLSCAASGFNFAAYTMGWNRQAPGKEREWVAGISKRGGTTYYADSVKGRFTISRDNAKNTVYLQMNSLKPEDTAVYYCAASRYVTTSRYQYNHWGQGTQVTVSS | high polyreactivity
QVQLEESGGGLVQAGGSLRLSCAASGFTFGFYAMGWYRQAPGKERELVARISYSGGSTYYADSVKGRFTISRDNAKNTVYLQMNSLKPEDTAVYYCNRGYRRLQEDYWGQGTQVTVSS | high polyreactivity
QVQLEESGGGLVQAGGSLRLSCAASGFTFKRYAMGSYRQAPGKEREFVAAITRGGGSTYYADSVKGRFTISRDNAKNSVYLQMNSLKPEDTAVYYCAADPQYTIRDYWGQGTQVTVSS | high polyreactivity
QVQLEESGGGLVQAGGSLRLSCAASGFTFPTNAMGWYRQAPGKERELVATISLGAGSTHYADSVKGRFTISRDNAKNTVYLQMNSLKPEDTAVYYCAARSRRWYDYDYWGQGTQVTVSS | low polyreactivity
